Assay results: the domain aggregation screens of Martell et al. (2025)

Assay: soluble fraction after stress (log2 fold change); higher = more stays soluble; pooled small domains, quantitative proteomics
Conditions: stress: 75 degC
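Further: 20 min heating vs room temperature control held 20 min.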

| Sequence | soluble fraction (log2) |
| --- | --- |
| HMAYMETIERVEALAPGTKFNLKALFGTDWTQSRGTKLTLGKTFYEMVESGYVKTAKVLGKDSSNIMQYER | 0.0793 |
| HMAYSEEERNLIRSRLKDVAAALFKEKGIRDTNIDEIYTPVGISKTFFYSFFPSKAVLAIAIMK | -0.248 |
| HMAYVDWYENKQPTHEEAFKKLLGRIHPGAIVLLHSTSKTNGEILDELLTKWEEMGYRFGTLDELTGN | -1.58 |
| HMDAATDAIKAEVRALLEMANAQGIDTESIMLEAHEQTRNATEQDYYEAAKSALEAAIAGSNRDR | 0.435 |
| HMDADGEPIKLDQIGISHLSFTVADVKSLGEELVAKGVKLAAPMEAFTSPEGRISSIFVYDPDGILLQFDD | 0.136 |
| HMDADRLSPREREMLQFIARGQSNKEIARALELAESTVKIHVQNMLRKLNLSSRVQAAVFAVENGLG | -1.59 |
| HMDAGLAEIIRSFEDNLGGFPPAAREDLLGWREIFTDDLILLAIKKAALAGVRKWSYVNGILKVWKNEGVR | -2.23 |
| HMDAHYMEMKGKTGTAFTMLRPAGKIDIEGQIFDAVAEAGFIEKGEAIRVVKYENAQLIVRK | -0.446 |
| HMDAIAYLGSRLKEIRLKSGLSLREIARQLDVSPSFISQIENGKSQPSVATLYAFAKLLNVPVDVLFQPS | -2.59 |
| HMDAKNNPQVMAQIRAILTAKGLSEDEVKTRLKTKNIDVDKMTDQEIIAQRPAIEAIINEMEQEKKQKMG | 0.0493 |
| HMDALPLIQLEKEIKDFISQGQKINAIKHYRNVMDRDFGTTISLKLAKYTVDALAQNIKVDLTKGYDQ | -1.01 |
| HMDALTLSIDAQGALYWNGQPVSRELAAQRFVEAAAQRPQPELHLRADQNVAYRHVAMTLADASRAGLTR | -0.248 |
| HMDANAYTYKVSEDTDTRTGEKIFLVKVAEKLSRKEYIVVNNYMKSLGSYYSKFKHAFLFKENPTEKL | -0.55 |
| HMDANLGEIFKVYEQEIGALTPFVREEMLDAIDHYPRDWILDAIRESAKSNARNWKYTLAILKRWKAEG | -0.284 |
| HMDAPIIRLLNSLVQRAVTTTASDIHIEPFEGETKVRMRIDGVIIDYVTLQRALHQPLIARIKIMSNLD | -0.15 |
| HMDAPKTGSLVVSKAVNYGSWSGFTFRLHGTSDKGNSVDVTATTGSDGKAYFKDIEIGTYTLEEVN | -0.406 |
| HMDAQEAAWARKMMETLPEKQKLSVALRIEEGLSFKEIGEIIGSSEGAARVNYFHGIRRLRELL | -0.789 |
| HMDAQNLQDQLFGFLKANPTQAYPAQTLADGLRLDDANAFTKVVQALAALERGGKVKVNEEGAFQYDAEK | 0.43 |
| HMDARSTHIAAIHVLKSKLQLQDSDYRALLLTLTGQTSSKDLSEHQRRAVRNHMQQLAERMGVVQ | -1.46 |
| HMDATFKVRVSVPDLNIRSGPGTNYAATGRFTGVGVFTITAVQSGQGSSSGWGKLKSGAGWIALDYAKR | -3.78 |
| HMDATIGGFKITDSAIYSGVKNNVNAGVRGTYIDKDGQIAFGDSNSYLKYYKDTDGKWKLEVSASSVKF | 0.454 |
| HMDAVDKDGNHMTFKKWSEQLQEAFHALELYDTTRAKQILSELVKFQVDSDITKSLKAIITNIDDMMA | -1.13 |
| HMDAYDEVTTLSQMVASGKNTTVAHLKHLKEYHQTDYLRQAVEWLLSNRKNVSFSVDEVMQEVHN | -0.0471 |
| HMDAYLPETVQKLLDVMDFDVPYSAAQLMEKLGLKSRASFRKLYLLPALEKNLIAMGVPDKPTSRNQTYIR | -0.787 |
| HMDAYSYFIRTYPLVDDPLIGDIRRIFAETHDGNPAGDADVRHILWRLLFERELYPTLDEATADWY | -2.39 |
| HMDDEAVQIMTLHISKGLEFDVVFALGLVSRTPESKEIEELEAEKQRQLYVAMTRAEKWLIVAA | 0.202 |

| Sequence | soluble fraction (log2) |
| --- | --- |
| HMDDEDLAFLQREFVSYQQAMDYYGLGYKPVVRLSHISGSVYKIGKKVLIRRNIFEEYLRNHV | 0.0397 |
| HMDDFGERLRKLRVAQDLTQQQLGEKLGVVPSTIGKYEKVKDSYPSIEVLIKLSDFFSVSTDYLLKG | -2.19 |
| HMDDFTEVLLQYLKDHDGYSSIHDKTDAETIYNTFGVSKKTFKKAVGDLYKKRLIVLEEEGIRLLG | -0.151 |
| HMDDISLEEIKYISSKLETKVNEIEELLVRYYDGETNEAEEKELKEFFAQADVPAHLLAEKRLFMQLASQ | 0.245 |
| HMDDKVGKVFNYVQEKILTGEWDIGDKITPEISLSKELGVSRSVVREAIKKFVALNILSRTQGGGTYVNNL | -0.848 |
| HMDDNMNEQWKMILNSIAKKGSVTRQETEKILGIGQTRAHVLLKAMIHAGMIKAVGDGKKRRYVR | -2.28 |
| HMDDNRSLSDLAQQVFKRENIQVSRDTLSLLVSRLGSDRAVSRQEIEKLALFAGSNGKLTEEDIHNALG | 0.0459 |
| HMDDPISSMVNRIRLAFGLSVTDLAAVLGVERPTIYSWLKDGSTPAPARLTRVRQVLSLADTW | -0.729 |
| HMDDPITVAYRETEDAIAQVQREGFPVEMPPANSYIRRIQHELAGRFNLDSESYGDEPERRVRIRPQQ | -0.107 |
| HMDDPTVILFDPKNGQRKIVKWKAGLTLYSARRSAGISSAAEATIQRAGKSLSGRTATALEPGDVIRW | -1.74 |
| HMDDSSLFGRHTGIGFIVDDIDSGYQTLLAKGVSFEMPPTEQPWGGILALMKDPDGNIFYLD | -0.0389 |
| HMDDTRLLSEIGLSQRVLNALRARGIERVGQVLAMRPDQLLGIRNFGPRALQELRERLQENGYTEGPLFSG | 0.379 |
| HMDDVIDVYATYDVSPTNQISNIKLYSDAAHANPVTGEAGKSYNDITEGHPGYQFRWSGTTWVPI | -1.04 |
| HMDDVIEVEGKVVEVLPNTKFIVELANSHKITAHISGKLRMNYIRIMKGDNVTVEMSPYDLTKGRIIWRS | -0.165 |
| HMDDVVVLPFTAEFARMSSDDFVREILVGKIGMKRFVVGYNHRFGSGQQGDFASLQRMQGELGFVAVRVG | 0.368 |
| HMDDVYMVPVKDIAINDLKQEFEKLGIPNIQNTIPDKDLNFFIVRKDDLALVNYAIEKTMER | 0.0193 |
| HMDEAETELIRRMVSEHPPTTKRERDIVQMRLRGYLFVEIGEAYGISFQRAAQIYNAAVEKIKEYWD | -0.242 |
| HMDEEQIASRRALIMRAAREIMETQGMEALSIRKIAAMIQQTPGIIYHYFSGKEELMLAVVQEGYH | -0.00144 |
| HMDEFAGSAKPLADGAAPAGYDVKGNKDSMKYHEPGGRWYDATVAEVWFKTAADAEAAGFVKAGA | 0.167 |
| HMDEFHLSERERQILNLLVLGHTYKHIASDLNIAYATVNKHVSNVYAKLRVQSASEAVALAIRKGL | -0.992 |
| HMDEFTIILEDAGSQKIAVIKEVRVLNSSLGLKEAKDLVDATPATIMEKADKATADKAKAAFEAAGAKVTI | -0.257 |
| HMDEIDYSKYSITTSNRIINIDGVQSKVELFDVSGRSIQSTMVTGKFSSRPLNAGFYIIHVDGYSVKVSV | -1.19 |
| HMDELIKQVANYIINNRATINETAGAFGKSVSSIKKYINDADKLQRIDFELYQKVKEVQKIVELNGQI | -0.396 |
| HMDEMEFQKYVDQNLKQKGISLTAEAKAELLLRLGGDTMLLHSAIEKLDLYGEKNLNLNDIKHLVSLNSDV | 0.254 |
| HMDENMQRYNTMEEIKKEFPYAEDTVRKLIAMGAIRGGGKVDANGDPADMDLSRDMLRMMVFNDRAGAYG | 0.524 |
| HMDEPGTGFKWREDVLLRVMEANGIDTSHRDDFVRHAVKFDNDDNLYLKKAEIEDAAAAWVSEHS | 0.161 |

| Sequence | soluble fraction (log2) |
| --- | --- |
| HMDERLAKLTPQERKILDLIAEGATNRQIGTELHLAEKTVKNYVSNMLMKLGMSRRTEAAVFAVKASIN | -1.9 |
| HMDERLLRLYERELQFLREGADEFAQAYPKVAGHLGLNSQSMGDPFIERLLEGLGFLTARIQLQLESEF | -0.47 |
| HMDEWFPVNDDYKFMVGDEVRTPDGLVKVVATHNDSATFYGKIITPIHDDVLKGETYEYRSYEAQVLA | -0.331 |
| HMDEWKRKELWDAIARLPKIQRMVVTMRTTENLPYKEIAKIMNISENSAKVNYHHAVEALKIFF | -2.84 |
| HMDEYGEVQALQRAGQTSEALARADRHIAAHPNDPQMRFVKANLLSAGGRAGEAETLLVQLTRD | -0.0543 |
| HMDFDLIAIFEEQFARALSPIEINIIKEWKNSNYSDDMIVKALKEAVKSQVFNFRYIERILINWSQNG | -1.9 |
| HMDFDVELTSAGTAKVKVIKAVREATGLGLKEAKDLVDNAPSIVKEGLDEAAANDLKAALEETGASVTL | 0.0189 |
| HMDFEEGAVKWFNTKKGYGFITRDQGDDIFVHFRNIKAQSRRSLTDGERVTFVVTEGDKGLQADHVSPV | -0.411 |
| HMDFGHWAAHKLEQMSEYRLRHGEAVAIGIALDVLYSVRQGLLARPAAERILSLLERLGFTLFDPELKS | 0.224 |
| HMDFLKSVDLSKYSKVESLILSHLSKGDFDIDDFIRSFSLGTDEVTRAIVSLEIEGIILRKGNRIFRKKS | -1.38 |
| HMDFMNSEIKKIVEDLKLTLQSLNYTKNEIKSILPVINKETDNLIKKEKYASFENLLRLAMNHLDNN | -0.751 |
| HMDFTPDQIARLDDIISRYKDKPGGLIPVLEEAQVALEYLPIGVQKRIAKGLNLPLSRVYGVVTFYSFFTM | -0.0122 |
| HMDFVKGDTVVFIDAFMPDHLMTIHKVQGEGILLDGNHKFALAHLIRHASTVELNAKRRLSLTEQS | -2.42 |
| HMDGASLLDIDGDGKVTPTIDGLLLMRWQFGTRGAALIGGISFPAGALRTTVNAIELHMRRLSETT | -0.699 |
| HMDGDVAVKGGDGVLEVRLANAANVRVYNLAGRLMADYTGTELHMPLPKGVYMVVAGDNRTKVVV | -0.476 |
| HMDGEINPYTGREYVTNSVRMHPRRIGYVQVYSRKDHKWTDMTEWAFLGEQERKKVLLGKAYEPPVYL | -1.91 |
| HMDGEMRRKRILQLLSEQTKPLSGTALAKQFGVSRQVIVQDIALLKSKEPAIISTYRGYVLGR | -1.25 |
| HMDGFAEFWSAYPKKVGKGAAEASWRKHRPPLQTVLDAVKRQAESDQWRKDGGQFIPNPATWLNQKRWEDD | -0.0375 |
| HMDGIIIPDVSGKSYAEAVATLNEKGFKVEKGEDAGSSLAKDLVSYTNPAAGNRAKSGATISVFVSTGANA | 0.407 |
| HMDGKTALQEIVASSGWSPPEYKVSESGPDHDKDFVAYAIVNGVAYPEGHGKSKREAEQVAARIAFEALSK | -0.0295 |
| HMDGMRASDMVRAALAGAGKTQKELAEHMGWTPQNLSGRLKNNSLTFDELSKALHFAGYEVSMSDANGAG | 0.0394 |
| HMDGNVPSVEGKPLSGAKYILETYGYKTGTVTEVNSEDVPAGIVISQNPARGTTLANGGSVNLQVSLG | 0.645 |
| HMDGPGAGGRFLAEDLGTGKMTLEALQRHYVTLVYSRTGKYEETARRLEIDRRTVKKYLDEELLAELRET | 0.0914 |
| HMDGQGIRSITPEYYLSDSATKMPDASSSGWKSVPDDYIDKHYYWVRSKILWDDGTYTTTTPVL | -0.17 |
